PMC2759517 (2009)
Where no end group is shown, it is not given here.

Experiments:
HA-tagged PA of FluB = target: T1, HA-tagged PA of FluB (Influenza B virus); assay: ELISA
T1 chain: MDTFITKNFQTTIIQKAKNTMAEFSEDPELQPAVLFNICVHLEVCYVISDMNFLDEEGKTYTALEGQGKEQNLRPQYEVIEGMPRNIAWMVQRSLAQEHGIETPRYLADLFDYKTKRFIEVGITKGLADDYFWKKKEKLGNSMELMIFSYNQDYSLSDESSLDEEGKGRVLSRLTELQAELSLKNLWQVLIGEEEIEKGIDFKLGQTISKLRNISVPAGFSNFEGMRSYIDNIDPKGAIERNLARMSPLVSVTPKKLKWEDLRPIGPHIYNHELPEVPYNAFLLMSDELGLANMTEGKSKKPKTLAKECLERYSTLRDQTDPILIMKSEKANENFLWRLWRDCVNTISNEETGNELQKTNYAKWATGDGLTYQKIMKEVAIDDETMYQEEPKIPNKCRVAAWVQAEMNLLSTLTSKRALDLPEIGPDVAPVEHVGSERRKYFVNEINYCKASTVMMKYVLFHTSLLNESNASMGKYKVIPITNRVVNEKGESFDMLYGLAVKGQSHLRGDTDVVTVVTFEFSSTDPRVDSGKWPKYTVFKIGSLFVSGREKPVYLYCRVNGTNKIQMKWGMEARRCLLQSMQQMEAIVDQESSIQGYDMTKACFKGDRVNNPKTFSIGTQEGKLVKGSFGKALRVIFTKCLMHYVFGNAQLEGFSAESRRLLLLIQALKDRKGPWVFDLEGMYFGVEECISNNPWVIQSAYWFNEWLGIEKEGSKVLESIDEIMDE

HA-tagged PA of FluA = HA-tagged PA of FluA (Influenza A virus); assay: ELISA

B1: PB1_(1–15)A competitor peptide (peptide)
peptide: MDVNPTLLFLKVPAQ-NH2
Q: For B1, which IC50 (HA-tagged PA of FluB) is on record?
A: Its IC50 is over 3000 nM.

B2: PB1_(1–15)B competitor peptide (peptide)
chain: MNINPYFLFIDVPIQ-NH2
Q: Which results are given for B2?
A: IC50 (HA-tagged PA of FluB): 45 nM; IC50 (HA-tagged PA of FluA): > 3000 nM
